{"source": "the supplement of paper PMC9112550", "about": "“Optimization of the antimicrobial peptide Bac7 by deep mutational scanning” (BMC Biology, 2022);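 note: peptides expressed intracellularly from a pBAD plasmid library in pooled LB shake-flask culture, induced with 0.3% L-arabinose, DNA abundance read by NGS, three biological replicates, DESeq2 with apeglm shrinkage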", "data": [{"test_system": "Escherichia coli TOP10", "experiment": "shrunken log2 fold change of peptide-encoding DNA abundance (4.5 h post-induction vs induction); higher = less antimicrobial activity (less host growth inhibition)", "conditions": "time post-induction: 4.5 h; library: site-saturation at positions 5, 18, 19, 20", "values": [{"sequence": "RRIRIRPPRLPRPRPRPSFPPRP", "shrunken log2 fold change": -0.779}, {"sequence": "RRIRIRPPRLPRPRPRPSGAPRP", "shrunken log2 fold change": 0.0148}, {"sequence": "RRIRIRPPRLPRPRPRPSHSPRP", "shrunken log2 fold change": -1.02}, {"sequence": "RRIRIRPPRLPRPRPRPSINPRP", "shrunken log2 fold change": -1.03}, {"sequence": "RRIRIRPPRLPRPRPRPSKTPRP", "shrunken log2 fold change": 0.0676}, {"sequence": "RRIRIRPPRLPRPRPRPSLPPRP", "shrunken log2 fold change": -0.491}, {"sequence": "RRIRIRPPRLPRPRPRPSMAPRP", "shrunken log2 fold change": -0.531}, {"sequence": "RRIRIRPPRLPRPRPRPSMHPRP", "shrunken log2 fold change": -0.511}, {"sequence": "RRIRIRPPRLPRPRPRPSNLPRP", "shrunken log2 fold change": -0.931}, {"sequence": "RRIRIRPPRLPRPRPRPSPAPRP", "shrunken log2 fold change": -0.11}, {"sequence": "RRIRIRPPRLPRPRPRPSQVPRP", "shrunken log2 fold change": -0.186}, {"sequence": "RRIRIRPPRLPRPRPRPSRLPRP", "shrunken log2 fold change": -0.0995}, {"sequence": "RRIRIRPPRLPRPRPRPSRPPRP", "shrunken log2 fold change": -0.00676}, {"sequence": "RRIRIRPPRLPRPRPRPSSMPRP", "shrunken log2 fold change": -0.432}, {"sequence": "RRIRIRPPRLPRPRPRPSTVPRP", "shrunken log2 fold change": -0.566}, {"sequence": "RRIRIRPPRLPRPRPRPSYEPRP", "shrunken log2 fold change": -0.53}, {"sequence": "RRIRIRPPRLPRPRPRPSYNPRP", "shrunken log2 fold change": -1.15}, {"sequence": "RRIRIRPPRLPRPRPRPTAMPRP", "shrunken log2 fold change": -0.191}, {"sequence": "RRIRIRPPRLPRPRPRPTAPPRP", "shrunken log2 fold change": 0.0608}, {"sequence": "RRIRIRPPRLPRPRPRPTCMPRP", "shrunken log2 fold change": -0.059}, {"sequence": "RRIRIRPPRLPRPRPRPTDDPRP", "shrunken log2 fold change": -0.217}, {"sequence": "RRIRIRPPRLPRPRPRPTDKPRP", "shrunken log2 fold change": -0.406}, {"sequence": "RRIRIRPPRLPRPRPRPTDPPRP", "shrunken log2 fold change": -0.223}, {"sequence": "RRIRIRPPRLPRPRPRPTEAPRP", "shrunken log2 fold change": -0.153}, {"sequence": "RRIRIRPPRLPRPRPRPTEQPRP", "shrunken log2 fold change": -0.348}, {"sequence": "RRIRIRPPRLPRPRPRPTGPPRP", "shrunken log2 fold change": -0.0249}, {"sequence": "RRIRIRPPRLPRPRPRPTHIPRP", "shrunken log2 fold change": -0.495}, {"sequence": "RRIRIRPPRLPRPRPRPTIGPRP", "shrunken log2 fold change": -0.396}, {"sequence": "RRIRIRPPRLPRPRPRPTINPRP", "shrunken log2 fold change": -0.65}, {"sequence": "RRIRIRPPRLPRPRPRPTKLPRP", "shrunken log2 fold change": -0.406}, {"sequence": "RRIRIRPPRLPRPRPRPTNCPRP", "shrunken log2 fold change": -0.649}, {"sequence": "RRIRIRPPRLPRPRPRPTPEPRP", "shrunken log2 fold change": 0.232}, {"sequence": "RRIRIRPPRLPRPRPRPTPIPRP", "shrunken log2 fold change": 0.153}, {"sequence": "RRIRIRPPRLPRPRPRPTPMPRP", "shrunken log2 fold change": -0.102}, {"sequence": "RRIRIRPPRLPRPRPRPTQAPRP", "shrunken log2 fold change": -0.00254}, {"sequence": "RRIRIRPPRLPRPRPRPTQCPRP", "shrunken log2 fold change": -0.65}, {"sequence": "RRIRIRPPRLPRPRPRPTQFPRP", "shrunken log2 fold change": 0.000325}, {"sequence": "RRIRIRPPRLPRPRPRPTRCPRP", "shrunken log2 fold change": 0.33}, {"sequence": "RRIRIRPPRLPRPRPRPTRFPRP", "shrunken log2 fold change": 0.04}, {"sequence": "RRIRIRPPRLPRPRPRPTRQPRP", "shrunken log2 fold change": -0.00609}, {"sequence": "RRIRIRPPRLPRPRPRPTRRPRP", "shrunken log2 fold change": 0.298}, {"sequence": "RRIRIRPPRLPRPRPRPTSGPRP", "shrunken log2 fold change": -0.00782}, {"sequence": "RRIRIRPPRLPRPRPRPTTGPRP", "shrunken log2 fold change": -0.228}, {"sequence": "RRIRIRPPRLPRPRPRPTVEPRP", "shrunken log2 fold change": -0.0817}, {"sequence": "RRIRIRPPRLPRPRPRPTVHPRP", "shrunken log2 fold change": 0.0548}, {"sequence": "RRIRIRPPRLPRPRPRPTVSPRP", "shrunken log2 fold change": -0.0336}, {"sequence": "RRIRIRPPRLPRPRPRPTWCPRP", "shrunken log2 fold change": 0.0363}, {"sequence": "RRIRIRPPRLPRPRPRPTWSPRP", "shrunken log2 fold change": 0.047}, {"sequence": "RRIRIRPPRLPRPRPRPVARPRP", "shrunken log2 fold change": 0.223}, {"sequence": "RRIRIRPPRLPRPRPRPVCCPRP", "shrunken log2 fold change": -0.0749}, {"sequence": "RRIRIRPPRLPRPRPRPVCDPRP", "shrunken log2 fold change": -0.372}, {"sequence": "RRIRIRPPRLPRPRPRPVCKPRP", "shrunken log2 fold change": -0.21}, {"sequence": "RRIRIRPPRLPRPRPRPVDCPRP", "shrunken log2 fold change": 0.0257}, {"sequence": "RRIRIRPPRLPRPRPRPVDKPRP", "shrunken log2 fold change": 0.0266}, {"sequence": "RRIRIRPPRLPRPRPRPVEWPRP", "shrunken log2 fold change": 0.0101}, {"sequence": "RRIRIRPPRLPRPRPRPVFEPRP", "shrunken log2 fold change": 0.0673}, {"sequence": "RRIRIRPPRLPRPRPRPVGIPRP", "shrunken log2 fold change": 0.16}, {"sequence": "RRIRIRPPRLPRPRPRPVGLPRP", "shrunken log2 fold change": -0.0289}, {"sequence": "RRIRIRPPRLPRPRPRPVHDPRP", "shrunken log2 fold change": -0.0869}, {"sequence": "RRIRIRPPRLPRPRPRPVHQPRP", "shrunken log2 fold change": -0.398}, {"sequence": "RRIRIRPPRLPRPRPRPVIMPRP", "shrunken log2 fold change": -0.334}, {"sequence": "RRIRIRPPRLPRPRPRPVMCPRP", "shrunken log2 fold change": 0.062}, {"sequence": "RRIRIRPPRLPRPRPRPVMDPRP", "shrunken log2 fold change": -0.184}, {"sequence": "RRIRIRPPRLPRPRPRPVQMPRP", "shrunken log2 fold change": -0.675}, {"sequence": "RRIRIRPPRLPRPRPRPVRLPRP", "shrunken log2 fold change": 0.499}, {"sequence": "RRIRIRPPRLPRPRPRPVSYPRP", "shrunken log2 fold change": -0.599}, {"sequence": "RRIRIRPPRLPRPRPRPVTKPRP", "shrunken log2 fold change": -0.359}, {"sequence": "RRIRIRPPRLPRPRPRPVVLPRP", "shrunken log2 fold change": -0.21}, {"sequence": "RRIRIRPPRLPRPRPRPVVTPRP", "shrunken log2 fold change": -0.408}, {"sequence": "RRIRIRPPRLPRPRPRPWAEPRP", "shrunken log2 fold change": -0.167}, {"sequence": "RRIRIRPPRLPRPRPRPWCDPRP", "shrunken log2 fold change": -0.769}, {"sequence": "RRIRIRPPRLPRPRPRPWGKPRP", "shrunken log2 fold change": -0.814}, {"sequence": "RRIRIRPPRLPRPRPRPWGNPRP", "shrunken log2 fold change": -0.803}, {"sequence": "RRIRIRPPRLPRPRPRPWGTPRP", "shrunken log2 fold change": -0.859}, {"sequence": "RRIRIRPPRLPRPRPRPWHAPRP", "shrunken log2 fold change": -0.0572}, {"sequence": "RRIRIRPPRLPRPRPRPWHCPRP", "shrunken log2 fold change": -0.0926}, {"sequence": "RRIRIRPPRLPRPRPRPWIPPRP", "shrunken log2 fold change": -0.562}, {"sequence": "RRIRIRPPRLPRPRPRPWKEPRP", "shrunken log2 fold change": -0.12}, {"sequence": "RRIRIRPPRLPRPRPRPWLFPRP", "shrunken log2 fold change": 0.0545}, {"sequence": "RRIRIRPPRLPRPRPRPWLHPRP", "shrunken log2 fold change": -0.496}, {"sequence": "RRIRIRPPRLPRPRPRPWLSPRP", "shrunken log2 fold change": -0.238}, {"sequence": "RRIRIRPPRLPRPRPRPWMTPRP", "shrunken log2 fold change": -0.53}, {"sequence": "RRIRIRPPRLPRPRPRPWNSPRP", "shrunken log2 fold change": -0.592}, {"sequence": "RRIRIRPPRLPRPRPRPWPPPRP", "shrunken log2 fold change": 0.0965}, {"sequence": "RRIRIRPPRLPRPRPRPWRIPRP", "shrunken log2 fold change": -0.409}, {"sequence": "RRIRIRPPRLPRPRPRPWRQPRP", "shrunken log2 fold change": 0.0165}, {"sequence": "RRIRIRPPRLPRPRPRPWRYPRP", "shrunken log2 fold change": -0.0701}, {"sequence": "RRIRIRPPRLPRPRPRPWSRPRP", "shrunken log2 fold change": -0.187}, {"sequence": "RRIRIRPPRLPRPRPRPWSTPRP", "shrunken log2 fold change": -0.358}, {"sequence": "RRIRIRPPRLPRPRPRPWSVPRP", "shrunken log2 fold change": -0.541}, {"sequence": "RRIRIRPPRLPRPRPRPWTHPRP", "shrunken log2 fold change": -0.0959}, {"sequence": "RRIRIRPPRLPRPRPRPWVFPRP", "shrunken log2 fold change": -0.397}, {"sequence": "RRIRIRPPRLPRPRPRPYCHPRP", "shrunken log2 fold change": -0.743}, {"sequence": "RRIRIRPPRLPRPRPRPYDDPRP", "shrunken log2 fold change": -0.0134}, {"sequence": "RRIRIRPPRLPRPRPRPYDTPRP", "shrunken log2 fold change": -0.0277}, {"sequence": "RRIRIRPPRLPRPRPRPYEAPRP", "shrunken log2 fold change": -0.18}, {"sequence": "RRIRIRPPRLPRPRPRPYFAPRP", "shrunken log2 fold change": -0.694}, {"sequence": "RRIRIRPPRLPRPRPRPYFSPRP", "shrunken log2 fold change": -0.382}, {"sequence": "RRIRIRPPRLPRPRPRPYGYPRP", "shrunken log2 fold change": -0.0764}, {"sequence": "RRIRIRPPRLPRPRPRPYHGPRP", "shrunken log2 fold change": -0.0135}, {"sequence": "RRIRIRPPRLPRPRPRPYKGPRP", "shrunken log2 fold change": -0.018}, {"sequence": "RRIRIRPPRLPRPRPRPYKRPRP", "shrunken log2 fold change": -0.0487}, {"sequence": "RRIRIRPPRLPRPRPRPYPGPRP", "shrunken log2 fold change": -0.0674}, {"sequence": "RRIRIRPPRLPRPRPRPYPPPRP", "shrunken log2 fold change": -0.818}, {"sequence": "RRIRIRPPRLPRPRPRPYQAPRP", "shrunken log2 fold change": -0.342}, {"sequence": "RRIRIRPPRLPRPRPRPYQNPRP", "shrunken log2 fold change": -1.1}, {"sequence": "RRIRIRPPRLPRPRPRPYSWPRP", "shrunken log2 fold change": -0.264}, {"sequence": "RRIRIRPPRLPRPRPRPYWDPRP", "shrunken log2 fold change": -0.143}, {"sequence": "RRIRIRPPRLPRPRPRPYWIPRP", "shrunken log2 fold change": -0.568}]}]}
